# Results as given in paper PMC3695229 (2013).
# * marks the point of attachment. Biotin = O=C1N[C@H]2[C@H](CS[C@H]2CCCCC(=O)*)N1
# T1: TGF-β2 (Homo sapiens, UniProt P61812)
# T1 chain: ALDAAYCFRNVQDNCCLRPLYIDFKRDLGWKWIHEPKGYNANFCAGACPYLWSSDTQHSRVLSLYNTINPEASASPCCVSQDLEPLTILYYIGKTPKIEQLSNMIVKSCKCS
# Target: T1, TGF-β2
# Assay: SPR
row,Kd,Binder
1,8 nM,MIWTMMQNKKTFTKP [P1-mZP ZP-C peptide]
2,~190 nM,Biotin-DATMIWTMMQNKKTFTK-NH2 [P4-mZP 732-748]
3,~350 nM,Biotin-DASIIWAMMQNKKTFTK-NH2 [P5-hZP 734-750]
